Results taken from PMC3097263.

Target: T1, MqsA N97A/R101A N97A;R101A (Escherichia coli K-12?) (UniProt Q46864)
T1 sequence: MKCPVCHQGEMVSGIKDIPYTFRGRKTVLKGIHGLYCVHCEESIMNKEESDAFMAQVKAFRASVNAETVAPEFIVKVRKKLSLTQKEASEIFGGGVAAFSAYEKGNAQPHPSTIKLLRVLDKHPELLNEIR
Test: EMSA
Conditions: 20 min at room temperature, binding buffer

## TGAACGTTGGTCAGACCTTGCAGGTGGGTAATGCTTCCGGTACGCCAATCACTGGCGGAAATGCCATTACCCAGGCCGACGCAGCAGAGCAAGGAGTTGTGATCAAGCCTGCACAAAATTCCACCGTTGCTGTTGCGTCGCAACCGACAATTACGTATTCTGAGTCTTCGGGTGAACAGAGTGCT (double strand) [PrpoS (Suppl. Fig. 3b probe)]
  binding: no binding
